Measurements from patent US20200347130A1 (JIANGSU HENGRUI MEDICINE, published 2020).
Residue numbers refer to the chain shown, from its start.

T1: CD96 extracellular region with His tag (CD96-His) (human, UniProt P40200 22-519)
T1 construct: also called CD96-ECD-His; Bio-CD96-His (biotin-labelled form)
T1 sequence: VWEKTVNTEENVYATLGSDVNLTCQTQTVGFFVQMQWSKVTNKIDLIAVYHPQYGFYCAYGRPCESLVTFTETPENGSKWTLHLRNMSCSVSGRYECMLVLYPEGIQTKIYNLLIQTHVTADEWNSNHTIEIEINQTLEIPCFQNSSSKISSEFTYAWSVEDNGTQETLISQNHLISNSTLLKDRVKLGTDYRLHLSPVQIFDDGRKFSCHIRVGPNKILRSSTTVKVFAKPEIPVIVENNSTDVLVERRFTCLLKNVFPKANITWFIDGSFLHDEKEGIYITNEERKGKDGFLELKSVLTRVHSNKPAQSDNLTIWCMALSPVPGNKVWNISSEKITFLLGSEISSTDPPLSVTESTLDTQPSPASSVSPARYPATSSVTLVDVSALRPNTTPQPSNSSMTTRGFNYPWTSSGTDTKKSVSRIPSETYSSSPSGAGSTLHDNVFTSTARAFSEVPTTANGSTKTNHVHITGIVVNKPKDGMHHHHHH

B1: h1722-007 (antibody, V domains shown)
VH: EVQLVQSGAEVKKPGSSVKVSCKASGGTFSDYWMHWVKQAPGQGLEWIGMLHPNSGTTSFNEKFKIRVTITIDKSTSTAYMELSSLRSEDTAVYYCASDYSGPFAYWGQGTLVTVSS
VL: DIQMTQSPSSLSASVGDRVTITCSASSSVNYIHWYQQKPGKAPKRWIYDTSKLASGVPSRFSGSGSGTDFTLTISSLQPEDFATYYCQQWRSNPLTFGQGTKLEIK
notes: Only variable regions are tied to this name
B2: h1722-008 (antibody, V domains shown)
VH: B1 VH with G27N, V68T
VL: B1 VL
notes: as for B1
B3: h1722-009 (antibody, V domains shown)
VH: B1 VH with K38R, I48M, I72A, S98R
VL: B1 VL with M4L, Y48F, F70Y
notes: as for B1
B4: h1722-011 (antibody, V domains shown)
VH: B1 VH
VL: B1 VL with M4L, Y48F, F70Y
notes: as for B1
B5: h1722-012 (antibody, V domains shown)
VH: B1 VH with G27N, V68T
VL: B1 VL with M4L, Y48F, F70Y
notes: as for B1
B6: h1721-007 (antibody, V domains shown)
VH: EVTLKESGPVLVKPTETLTLTCTVSGFSLSSYGVNWIRQPPGKALEWLGVIWGDGSTNYHSALISRLTISKDTSKSQVVLTLTNMDPVDTATYYCAKNYFYGSRYGYAMDSWGQGTTVTVSS
VL: DIQMTQSPSSLSASVGDRVTITCRASENIYSSLAWYQQKPGKAPKLLVYNAKTLIEGVPSRFSGSGSGTDYTLTISSLQPEDFATYYCQHHYGTPYTFGGGTKVEIK
notes: as for B1
B7: h1721-009 (antibody, V domains shown)
VH: B6 VH with G49A, L82M, K97R
VL: B6 VL with A43S
notes: as for B1
B8: h1721-002 (antibody, V domains shown)
VH: B6 VH with L82M
VL: B6 VL with V48I, Y71F
notes: as for B1
B9: h1721-012 (antibody, V domains shown)
VH: B6 VH with I37V, A44G
VL: B6 VL with A43S
notes: also called h1721-0012
B10: h1721-011 (antibody, V domains shown)
VH: B6 VH
VL: B6 VL with A43S
notes: as for B1
B11: h1721-010 (antibody, V domains shown)
VH: B6 VH with L82M
VL: B6 VL with A43S
notes: as for B1
B12: h1721-004 (antibody, V domains shown)
VH: B6 VH with I37V, A44G
VL: B6 VL with V48I, Y71F
notes: as for B1
B13: h1721-006 (antibody, V domains shown)
VH: B6 VH with L82M
VL: B6 VL
notes: as for B1
B14: h1721-008 (antibody, V domains shown)
VH: B6 VH with I37V, A44G
VL: B6 VL
notes: as for B1
B15: h1721-005 (antibody, V domains shown)
VH: B6 VH with G49A, L82M, K97R
VL: B6 VL
notes: as for B1
B16: h1721-001 (antibody, V domains shown)
VH: B6 VH with G49A, L82M, K97R
VL: B6 VL with V48I, Y71F
notes: as for B1
B17: h1719-007 (antibody, V domains shown)
VH: EVTLKESGPVLVKPTETLTLTCTVSGFSLSSYGVSWVRQPPGKGLEWLGVIWGDGNTNYHSVLISRLTISKDTSKSQVVLTLTNMDPVDTATYYCAKQNYYGSRYGYPLDYWGQGTTVTVSS
VL: DIQMTQSPSSVSASVGDRVTITCKATQDVGTAVAWYQQKPGKAPKLLIYWASTRHTGVPSRFSGSGSGTDFTLTISSLQPEDFATYYCQQYGSSVLTFGGGTKVEIK
notes: as for B1
B18: h1719-016 (antibody, V domains shown)
VH: B17 VH with L109I
VL: B17 VL with A43S, S60E, Y87F
notes: as for B1
B19: h1719-008 (antibody, V domains shown)
VH: B17 VH with Q98N, N99Y
VL: B17 VL
notes: as for B1
B20: h1719-013 (antibody, V domains shown)
VH: B17 VH
VL: B17 VL with A43S, S60E, Y87F
notes: as for B1
B21: h1718-007 (antibody, V domains shown)
VH: EVQLVQSGAEVKKPGASVKVSCKASGYTITDYNMNWVRQAPGQRLEWIGVINPSYGITDYNQNFKDRVTITVDTSASTAYMELSSLRSEDTAVYYCAIQLRLPGYFDVWGQGTTVTVSS
VL: DIQMTQSPSSLSASVGDRVTITCKASQDINNYLNWFQQKPGKAPKTLIYRANRLVDGVPSRFSGSGSGQDYTLTISSLQPEDFATYYCLKYDEFPYTFGGGTKVEIK
notes: as for B1
B22: h1718-019 (antibody, V domains shown)
VH: B21 VH with R38K, R67K
VL: B21 VL with N31T
notes: as for B1
B23: h1718-008 (antibody, V domains shown)
VH: B21 VH with R38K, R67K
VL: B21 VL
notes: as for B1
B24: h1718-018 (antibody, V domains shown)
VH: B21 VH with R38K, R67K
VL: B21 VL with N31Q
notes: as for B1
B25: h1718-014 (antibody, V domains shown)
VH: B21 VH
VL: B21 VL with N31L
notes: as for B1
B26: h1718-013 (antibody, V domains shown)
VH: B21 VH
VL: B21 VL with N31T
notes: as for B1
B27: h1718-020 (antibody, V domains shown)
VH: B21 VH with R38K, R67K
VL: B21 VL with N31L
notes: as for B1

biological target: T1, CD96 extracellular region with His tag …; test: SPR (Biacore), antibody captured, CD96-ECD-His as mobile phase
Description: Protein A biosensor chip was used to capture antibodies to be tested, then CD96 antigen was flowed on the surface of the chip, and real time reaction signal was detected by Biacore to obtain the binding and dissociation curve. After the dissociation of each experimental cycle was completed, the biosensor chip was washed and regenerated with a glycine-hydrochloric acid regeneration solution (pH 1.5).

Kd | Binder
1.31 nM | B1
1 nM | B2
4.55 nM | B3
0.948 nM | B4
0.781 nM | B5
1.87 nM | B6
2.01 nM | B7
2.2 nM | B8
2.14 nM | B9
2.12 nM | B10
2.04 nM | B11
2 nM | B12
2.29 nM | B13
2.22 nM | B14
2.25 nM | B15
2.73 nM | B16
25.5 nM | B17
90.7 nM | B18
17.6 nM | B19
19.8 nM | B20
3.88 nM | B21
3.7 nM | B22
3.37 nM | B23
3.82 nM | B24
4.31 nM | B25
4.08 nM | B26
3.41 nM | B27
